Laboratory results reported in patent US20240352105A1, “COMPOSITIONS AND METHODS FOR NEUTRALIZING ANTIGENS” (PACAGEN, INC, priority 2023, published 2024).

Tests used:
[1] = molecular target: T1, recombinant His-tagged Der p1 (dust mite, UniProt P08176 99-320, limits assumed); experiment: ELISA, Der p1-His 0.016 µg/mL, repeat 1
T1 sequence (looked up): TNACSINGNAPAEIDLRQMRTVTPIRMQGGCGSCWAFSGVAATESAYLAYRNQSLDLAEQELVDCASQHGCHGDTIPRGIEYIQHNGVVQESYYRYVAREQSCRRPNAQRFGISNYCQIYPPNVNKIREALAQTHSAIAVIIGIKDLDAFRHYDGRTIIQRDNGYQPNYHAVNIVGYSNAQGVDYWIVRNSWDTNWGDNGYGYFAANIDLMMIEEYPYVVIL

[2] = molecular target: T1, recombinant His-tagged Der p1; experiment: ELISA, Der p1-His 2 µg/mL, repeat 1
[3] = molecular target: T1, recombinant His-tagged Der p1; experiment: ELISA, Der p1-His 0.00064 µg/mL, repeat 2
[4] = molecular target: T1, recombinant His-tagged Der p1; experiment: ELISA, Der p1-His 0.0032 µg/mL, repeat 2
[5] = molecular target: T1, recombinant His-tagged Der p1; experiment: ELISA, Der p1-His 0.4 µg/mL, repeat 1
[6] = molecular target: T1, recombinant His-tagged Der p1; experiment: ELISA, Der p1-His 0.00064 µg/mL, repeat 1
[7] = molecular target: T1, recombinant His-tagged Der p1; experiment: ELISA, Der p1-His 2 µg/mL, repeat 2
[8] = molecular target: T1, recombinant His-tagged Der p1; experiment: ELISA, Der p1-His 10 µg/mL, repeat 1
[9] = molecular target: T1, recombinant His-tagged Der p1; experiment: ELISA, Der p1-His 0.08 µg/mL, repeat 1
[10] = molecular target: T1, recombinant His-tagged Der p1; experiment: ELISA, Der p1-His 0.016 µg/mL, repeat 2
[11] = molecular target: T1, recombinant His-tagged Der p1; experiment: ELISA, Der p1-His 0.08 µg/mL, repeat 2
[12] = molecular target: T1, recombinant His-tagged Der p1; experiment: ELISA, Der p1-His 0.0032 µg/mL, repeat 1
[13] = molecular target: T1, recombinant His-tagged Der p1; experiment: ELISA, Der p1-His 10 µg/mL, repeat 2
[14] = molecular target: T1, recombinant His-tagged Der p1; experiment: ELISA, Der p1-His 0.4 µg/mL, repeat 2
[15] = molecular target: T2, Fel D1 epitope peptide SDAB22110-115-28AA-2 (cat); experiment: ELISA on Fel D1 epitope peptide; the row names two epitopes (SEQ ID NO: 61 and 58) and one EC50
T2 peptide: ENARILKNCVDAKM
Protocol: (§1) 2 microgram per milliliter (μg/mL) target antigen is coated in a 96-well plate and ELISA assay is performed after incubation with candidate VHHs. The binding EC50 of each clone is calculated using Prism GraphPad. The positive control antibody is involved as an internal control.
(§2) Isolated VHH clones were further validated by performing an ELISA assay as described in Example 1. Binding results are shown in FIG. 15B-15D for the epitope of SEQ ID NO: 61. Binding results are shown in FIG. 16 for the epitope of SEQ ID NO: 59. Binding results are shown in FIG. 17A-17E for the epitope of SEQ ID NO: 60. Binding results are shown in FIG. 18 for the epitope of SEQ ID NO: 58.

Fel D1 [16] = experiment: ELISA binding assay of anti-Fel d1 VHH clones on Fel D1 epitopes; design: species or system cat
Protocol: as §1
Four distinct epitopes of Fel D1 were selected to be used for further identification. Peptides were synthesized for the four epitopes for VHH identification.
as §2

[17] = Thermostability (Tm, Tonset, Tagg) by Nanotemper DSF; type: physicochemical; design: key to Tm2 / Tagg / Tm1 / Tm / Tm3 / Tonset / Tonset ø (mean) / Tagg ø (mean): temperatures in °C; details: for Tm: single melting point
Method in brief: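 Isolated VHH clones were heated from 20 °C to 95 °C at 1 °C/min using DSF. Tm, Tonset and Tagg were derived from the thermal curves. Where several melting transitions occurred, each was reported in order (Tm1, Tm2, etc.).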

Fel D1 [18] = molecular target: T3, Fel D1 (Felis catus, UniProt P30438+P30440); experiment: Size Exclusion Chromatography test of Fel D1 neutralization (tetramer formation); design: species or system cat; details: 30 ug Fel D1 and 30 ug 1-C3 pre-incubated at 37° C. for 4 hours
T3 sequence (P30438 23-92): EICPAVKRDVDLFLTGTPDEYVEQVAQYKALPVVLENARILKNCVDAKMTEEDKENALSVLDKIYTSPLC
T3 sequence (P30440 18-109): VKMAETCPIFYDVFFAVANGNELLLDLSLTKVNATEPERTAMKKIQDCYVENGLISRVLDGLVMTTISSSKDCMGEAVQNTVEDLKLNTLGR
Protocol: Functional validation was also performed testing the capability of an exemplary clone to neutralize Fel D1. Fel D1 is naturally a weaker tetramer that causes allergic reactions by causing cross-linking of neighboring IgEs on immune cells (mast cells, etc.). […] On the SEC, there are two distinct peaks for pure Fel D1, the earlier peak representing the tetramer and the laker peak representing the monomer (FIG. 20A). Conditions for this SEC graph are (Column: Zenix-C SEC-80, 7.8×300 mm, 3 um, 80 Å; Sample: Fel D1; Sample Volume: 30 μL (25 ug); Mobile phase: 150 mM phosphate buffer, pH 7.0; Flow rate: 0.7 mL/min; Detection: UV 280 nm; System: Thermo Vanquish Flex.
Conditions for this SEC graph are (Column: Zenix-C SEC-80, 7.8×300 mm, 3 um, 80 Å; Sample: 1-C3; Sample Volume: 30 μL; Mobile phase: 150 mM phosphate buffer, pH 7.0; Flow rate: 0.7 mL/min; Detection: UV 280 nm; System: Thermo Vanquish Flex.
When clone C3 and Fel D1 are incubated together for 4 hours at 37° C. and then assayed, the two Fel D1 peaks were no longer detected and only the C3-Fel D1 complex is detected. […]

[19] = anti-Fel d1 VHH, in °C (unit assumed)
[20] = Average of two replicates, anti-Fel d1 VHH
[21] = Average of two replicates, anti-Fel d1 VHH, in °C (unit assumed)
[22] = Replicate 1, in °C (unit assumed)
[23] = Replicate 2, in °C (unit assumed)

In the case of known Der p1 antibody (clone 10B9), the OD at 450 nm [1] is reported as 0.2 OD, the OD at 450 nm [2] is reported as 4.03 OD and the OD at 450 nm [3] is reported as 0.12 OD. For the same molecule, the OD at 450 nm [4] was 0.12 OD, the OD at 450 nm [5] was 1.8 OD and the OD at 450 nm [6] was 0.13 OD. The OD at 450 nm [7] was 4.31 OD, the OD at 450 nm [8] was 4.37 OD and the OD at 450 nm [9] was 0.58 OD. It also gave an OD at 450 nm [10] of 0.17 OD, an OD at 450 nm [11] of 0.49 OD and an OD at 450 nm [12] of 0.25 OD. For the same molecule, the OD at 450 nm [13] was 4.4 OD and the OD at 450 nm [14] was 1.87 OD.

B1: SDAB22110-1-1-C3 (VHH)
VHH: QLQLVESGGGLVQPGGSLRLSCEASGFTFKYYTMSWYRQAPGKERELVATITNGDRTNYADSVKGRFTISRDNAKNTLYLQMNSLKPYDTAVYYCNRHLPLLQIWGQGTQVTVSS
notes: Expressed from a prokaryotic vector
For B1, the EC50 [15] was 0.352 µg/mL.

B2: SDAB22110-1-1-C3: anti-Fel d1 VHH clone, SEQ ID NO: 49 (protein)
VHH: AVQLVESGGGLVQPGGSLRLSCAASGFTFTNYAMRWYRQAPGKERELVAAIPTSGGYTYTADSVKGRFTISRDNAKNTVYLQMNSLKPEDTAVYYCYGLRTLSDYYWGQGTQVTVSS
Work on B2 yielded an EC50 (Fel D1 [16]; Epitope Recognized ENARILKNCVDAKM (SEQ ID NO: 61), VAQYKALPVVLENA (SEQ ID NO: 58)) of 0.352 µg/mL, a Tagg ([17]; anti-Fel d1 VHH) of 58.93 and a Tm [17, 19] of 66.50. For the same molecule, the “Fel D1 tetramer formation (SEC)” value (Fel D1 [18]) was “preventing the Fel D1 tetramer from forming”.

B3: SDAB22110-3-1-D9-1: anti-Fel d1 VHH clone, SEQ ID NO: 52 (protein)
VHH: AVQLVESGGGLVQPGGSLRLSCIISGFTSVSYSIVWFRQAPGKGREGVSCIGSSGGSTDYIDSVKGRFTISRDSAKNTVYLQMDCLKPEDTAVYYCAALRDVYRLCVIDYMNNDYWGQGTQVTVSS
With B3 the EC50 (Fel D1 [16]; Epitope Recognized FAVANGNELLLDLS (SEQ ID NO: 59)) was 12.940 µg/mL, the “Tagg ø (mean)” value [17, 20] was 42.78 and the “Tonset ø (mean)” value [17, 20] was 32.74. The “Tm ø (mean), first melting point (Tm1)” value [17, 21] was 41.13, the “Tm ø (mean), second melting point (Tm2)” value [17, 21] was 52.88 and the Tagg ([17]; Replicate 1) was 42.76. The Tonset ([17]; Replicate 1) was 32.57, the “Tm, first melting point (Tm1)” value [17, 22] was 41.01 and the “Tm, second melting point (Tm2)” value [17, 22] was 52.86. The Tagg ([17]; Replicate 2) was 42.80, the Tonset ([17]; Replicate 2) was 32.90 and the “Tm, first melting point (Tm1)” value [17, 23] was 41.25. The “Tm, second melting point (Tm2)” value [17, 23] was 52.91, the Tagg ([17]; anti-Fel d1 VHH) was 42.30 and the Tm [17, 19] was 47.50.
